Data reported in US20110044994A1 (THERACLONE SCIENCES, published 2011).
Positions count from the first letter of the chain named.

B1: 1443_C16 (PG16) (antibody, V domains shown)
VH: QEQLVESGGGVVQPGGSLRLSCLASGFTFHKYGMHWVRQAPGKGLEWVALISDDGMRKYHSDSMWGRVTISRDNSKNTLYLQFSSLKVEDTAMFFCAREAGGPIWHDDVKYYDFNDGYYNYHYMDVWGKGTTVTVSS
VL: QSALTQPASVSGSPGQTITISCNGTSSDVGGFDSVSWYQQSPGKAPKVMVFDVSHRPSGISNRFSGSKSGNTASLTISGLHIEDEGDYFCSSLTDRSHRIFGGGTKVTVLG
B2: 1456_P20 (PG20) (antibody, human IgG1, kappa, V domains shown)
VH: QVRLVQSGPEVKKPGSSVTVSCQASGGTFSSYAFTWVRQAPGQGLEWLGMVTPIFGEAKYSQRFEGRVTITADESTSTTSIELRGLTSEDTAIYYCARDRRAVPIATDNWLDPWGQGTLVTVSS
VL: DIQLTQSPSSLSASVGDRVSITCRASQTINNYLNWYQQTPGKAPKLLIYGASNLQNGVPSRFSGSGSGTDFTLTISSLQPEDFATYYCQQSFSTPRTFGQGTRLDIKR
B3: 1460_G14 (PGG14) (antibody, human IgG1, kappa, V domains shown)
VH: QVLLVQSGTEVKKPGSSVKVSCQASGGAFSSYAFSWVRQAPGQGLEWMGMITPVFGETKYAPRFQGRLTLTAEESLSTTYMELRSLTSDDTAFYYCTRDRRVVPMATDNWLDPWGQGTLVTVSS
VL: B2 VL with S20T, I21V, N30H, N31T, T39I, N53T, N56S, S76N, F92Y
B4: 1496_C09 (PG9) (antibody, V domains shown)
VH: QRLVESGGGVVQPGSSLRLSCAASGFDFSRQGMHWVRQAPGQGLEWVAFIKYDGSEKYHADSVWGRLSISRDNSKDTLYLQMNSLRVEDTATYFCVREAGGPDYRNGYNYYDFYDGYYNYHYMDVWGKGTTVTVSS
VL: QSALTQPASVSGSPGQSITISCNGTSNDVGGYESVSWYQQHPGKAPKVVIYDVSKRPSGVSNRFSGSKSGNTASLTISGLQAEDEGDYYCKSLTSTRRRVFGTGTKLTVLG
B5: 1495_C14 (PGC14) (antibody, human IgG1, lambda, V domains shown)
VH: DGHLVQSGVEVKKTGATVKISCKVSGYSFIDYYLHWVQRAPGKGLEWVGLIDPENGEARYAEKFQGRVTIIADTSIDTGYMEMRSLKSEDTAVYFCAAGAVGADSGSWFDPWGQGTLVTVSS
VL: SYELTQPPSVSVSPGQTASITCSGSKLGDKYVSWYQLRPGQSPILVMYENDRRPSGIPERFSGSNSGDTATLTISGTQALDEADFYCQAWETTTTTFVFFGGGTQLTVLG

Tests used:
[1] = target: JR-CSF pseudovirus (HIV-1 Env on the virions) (HIV-1, UniProt P20871 32-848); assay: cell-based or functional assay
[2] = target: JR-FL (E168K) pseudovirus Env (HIV-1); assay: cell-based or functional assay
ADA pseudovirus Env = ADA pseudovirus Env (HIV-1); assay: cell-based or functional assay
92RW020 pseudovirus Env = 92RW020 pseudovirus Env (HIV-1); assay: cell-based or functional assay
[3] = target: T1, recombinant, monomeric gp120JR-CSF (HIV-1, UniProt P20871 32-503); assay: ELISA screen of B cell culture supernatants
T1 construct: domain: gp120; also called JR-CSF gp120; JR-CSFgp120

recombinant gp41HxB2 [4] = target: T2, recombinant gp41HxB2 (HIV-1, UniProt P04578 541-682); assay: ELISA screen of B cell culture supernatants
T2 construct: domain: gp41

recombinant gp41HxB2 [5] = target: T2, recombinant gp41HxB2; assay: ELISA
[6] = target: T1, recombinant, monomeric gp120JR-CSF; assay: mAb specificity by ELISA

| Binder | IC50 (ug/ml), pseudovirus neutralization, TZM-bl assay [1] [µg/mL] | IC50 (ug/ml), pseudovirus neutralization, TZM-bl assay [2] [µg/mL] | IC50 (ug/ml), pseudovirus neutralization, TZM-bl assay (ADA pseudovirus Env) [µg/mL] | IC50 (ug/ml), pseudovirus neutralization, TZM-bl assay (92RW020 pseudovirus Env) [µg/mL] | binding result [3] | binding result (recombinant gp41HxB2 [4]) | binding result (recombinant gp41HxB2 [5]) | binding result [6] |
| --- | --- | --- | --- | --- | --- | --- | --- | --- |
| B1 | 0.001 | 0.006 | 0.004 | 0.09 | no binding | no binding |  |  |
| B2 |  |  |  |  |  |  | no binding | binds |
| B3 |  |  |  |  |  |  | no binding | binds |
| B4 |  |  | 0.2 | 0.1 |  | no binding |  |  |
| B5 |  |  |  |  |  |  | no binding | binds |
